Test results as given in patent US20120269817A1 (Bayer, published 2012).
Where a chain is given by its changes, count along the chain named.

B1: TP-4E8 Fab (Fab, V domains shown)
VH: QVQLVESGGGLVQPGGSLRLSCAASGFTFNDYAMSWVRQAPGKGLEWVSLIESVSSSTYYADSVKGRFTISRDNSKNTLYLQMNSLRAEDTAVYYCARTIGVLWDDVWGQGTLVTVSS
VL: DIELTQPPSVSVAPGQTARISCSGDALGSKYVSWYQQKPGQAPVLVIYGDNKRPSGIPERFSGSNSGNTATLTISGTQAEDEADYYCQSYTYSLNQVFGGGTKLTVLG
notes: Human Fab from HuCal Gold, expressed in E. coli TG1
B2: TP-4G8 Fab (Fab, V domains shown)
VH: QVQLVESGGGLVQPGGSLRLSCAASGFTFSTYAMHWVRQAPGKGLEWVSTISGYGSFTYYADSVKGRFTISRDNSKNTLYLQMNSLRAEDTAVYYCARNGRKYGQMDNWGQGTLVTVSS
VL: DIELTQPPSVSVAPGQTARISCSGDKLGSKSVHWYQQKPGQAPVLVIYRDTDRPSGIPERFSGSNSGNTATLTISGTQAEDEADYYCQTYDYILNVFGGGTKLTVLG
notes: as for B1
B3: 2G6-IgG (antibody, V domains shown)
VH: QVQLQQSGPGLVKPSQTLSLTCAISGDSVSSSSAAWSWIRQSPGRGLEWLGIIYYRSKWYNDYAVSVKSRITINPDTSKNQFSLQLNSVTPEDTAVYYCARHSMVGFDVWGQGTLVTVSS
VL: DIVLTQSPATLSLSPGERATLSCRASQYVTSSYLAWYQQKPGQAPRLLIYGSSRATGVPARFSGSGSGTDFTLTISSLEPEDFATYYCQQYSSSPITFGQGTKVEIKR
notes: Chimeric IgG: human variable regions on mouse constant regions, murine IgG1 isotype, made in HKB11 cells; also called IgG-2G6; TP-2G6 chimeric IgG
B4: TP-3C2 chimeric IgG (antibody, V domains shown)
VH: B3 VH with I52M, D62H, H102G, S103G, M104S, V105G, G106V, F107M
VL: DIQMTQSPSSLSASVGDRVTITCRASQSITNYLNWYQQKPGKAPKLLIYDVSNLQSGVPSRFSGSGSGTDFTLTISSLQPEDFAVYYCQQYSGYPLTFGQGTKVEIKR
notes: Chimeric IgG: human variable regions on mouse constant regions, murine IgG1 isotype, made in HKB11 cells
B5: TP-3G1 chimeric IgG (antibody, V domains shown)
VH: QVQLQQSGPGLVKPSQTLSLTCAISGDSVSSNSGGWGWIRQSPGRGLEWLGLIYYRSKWYNAYAVSVKSRITINPDTSKNQFSLQLNSVTPEDTAVYYCARYLGSNFYVYSDVWGQGTLVTVSS
VL: DIQMTQSPSSLSASVGDRVTITCRASQGISSYLHWYQQKPGKAPKLLIYGASTLQSGVPSRFSGSGSGTDFTLTISSLQPEDFATYYCQQQNGYPFTFGQGTKVEIKR
notes: as for B4
B6: TP-4H8 Fab (Fab, V domains shown)
VH: QVQLVESGGGLVQPGGSLRLSCAASGFTFSDHAMHWVRQAPGKGLEWVSVIEYSGSKTNYADSVKGRFTISRDNSKNTLYLQMNSLRAEDTAVYYCARGDYYPYLVFAIWGQGTLVTVSS
VL: DIELTQPPSVSVAPGQTARISCSGDSIGKKYVHWYQQKPGQAPVLVIYGDNNRPSGIPERFSGSNSGNTATLTISGTQAEDEADYYCSTADSVITYKNVFGGGTKLTVLG
notes: as for B1
B7: TP-2C1 Fab (Fab, V domains shown)
VH: QVQLVESGGGLVQPGGSLRLSCAASGFTFSPYVMSWVRQAPGKGLEWVSSISSSSSNTYYADSVKGRFTISRDNSKNTLYLQMNSLRAEDTAVYYCARGDSYMYDVWGQGTLVTVSS
VL: DIELTQPPSVSVAPGQTARISCSGDSIGSYYAHWYQQKPGQAPVLVIYYDSKRPSGIPERFSGSNSGNTATLTISGTQAEDEADYYCQAYTGQSISRVFGGGTKLTVLG
notes: as for B1
B8: TP-4B7 chimeric IgG (antibody, V domains shown)
VH: QVQLQQSGPGLVKPSQTLSLTCAISGDSVSSNSAAWSWIRQSPGRGLEWLGIIYKRSKWYNDYAVSVKSRITINPDTSKNQFSLQLNSVTPEDTAVYYCARWHSDKHWGFDYWGQGTLVTVSS
VL: DIVMTQSPLSLPVTPGEPASISCRSSQSLVFSDGNTYLNWYLQKPGQSPQLLIYKGSNRASGVPDRFSGSGSGTDFTLKISRVEAEDVGVYYCQQYDSYPLTFGQGTKVEIKR
notes: as for B4
B9: TP-2G7 Fab (Fab, V domains shown)
VH: QVQLVESGGGLVQPGGSLRLSCAASGFTFNSYAMSWVRQAPGKGLEWVSNISSNSSNTYYADSVKGRFTISRDNSKNTLYLQMNSLRAEDTAVYYCARKGGGEHGFFPSDIWGQGTLVTVSS
VL: DIELTQPPSVSVAPGQTARISCSGDNLGTYYVHWYQQKPGQAPVLVIYGDNNRPSGIPERFSGSNSGNTATLTISGTQAEDEADYYCQTYDSNNESIVFGGGTKLTVLG
notes: as for B1

Columns and labels:
[1] = molecular target: T1, human tissue factor pathway inhibitor (TFPI) (human, UniProt P10646 29-304, limits assumed); experiment: Biacore, TFPI on CM5 chip, Fab in mobile phase
T1 construct: Bought protein; also called human TFPI; hTFPI
T1 sequence (looked up): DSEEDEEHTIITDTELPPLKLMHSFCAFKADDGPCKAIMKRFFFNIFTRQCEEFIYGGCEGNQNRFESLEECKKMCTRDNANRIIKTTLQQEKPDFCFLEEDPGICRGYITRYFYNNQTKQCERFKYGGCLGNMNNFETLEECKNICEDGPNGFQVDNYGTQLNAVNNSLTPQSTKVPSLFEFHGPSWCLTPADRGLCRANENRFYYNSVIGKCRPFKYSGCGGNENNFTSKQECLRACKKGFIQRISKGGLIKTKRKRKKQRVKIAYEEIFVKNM
In short: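 Surface plasmon resonance with human or mouse TFPI amine-coupled to a CM5 chip at approximately 300 RU. Purified Fabs were injected in mobile phase at 0.1, 0.4, 1.6, 6.4 and 25 nM. Kinetics and binding affinity were derived from the sensorgrams.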

[2] = molecular target: T2, BSA (bovine, UniProt P02769 25-607); experiment: ELISA
T2 construct: also called bovine serum albumin
In short: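 Fab from E. coli TG1 lysates bound to plates coated with human TFPI, or with mouse TFPI for cross-reactivity, with BSA and lysozyme as negative controls. Detection by HRP-anti-human Fab with AmplexRed/H2O2; signal ≥5-fold over background scored positive.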

[3] = molecular target: T3, mouse tissue factor pathway inhibitor (TFPI) (mouse, UniProt O54819 29-289, limits assumed); experiment: ELISA, Fab on coated mouse TFPI
T3 construct: Bought protein; also called mouse TFPI; mTFPI
T3 sequence (looked up): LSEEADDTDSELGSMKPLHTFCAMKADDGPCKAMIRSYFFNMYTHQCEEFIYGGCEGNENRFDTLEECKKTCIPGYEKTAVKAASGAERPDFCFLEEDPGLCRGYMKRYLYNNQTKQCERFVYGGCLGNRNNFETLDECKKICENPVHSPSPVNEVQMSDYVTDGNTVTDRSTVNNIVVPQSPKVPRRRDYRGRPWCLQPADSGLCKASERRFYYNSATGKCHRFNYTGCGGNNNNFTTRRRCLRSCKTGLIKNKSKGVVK
Procedure: To select antibody clones that bind to human TFPI, Fab genes of the phage clones from the second and third round of panning were subcloned into a bacterial expression vector and expressed in E. coli strain TG1. The bacterial lysate was added to the wells of the human TFPI-coated Maxisorp plates. After washing, HRP-conjugated goat anti-human Fab was used as a detection antibody and the plates were developed by adding AmplexRed (Invitrogen) with hydrogen peroxide. A signal of at least five-fold higher than the background was considered as positive. The cross reactivity of the anti-human TFPI antibodies to mouse TFPI was determined by a similar mouse TFPI-binding ELISA. The plates were coated with mouse TFPI (R&D System), BSA and lysozyme. The later two antigens were used as negative controls.

[4] = molecular target: T1, human tissue factor pathway inhibitor …; experiment: ELISA, Fab on coated TFPI
In short: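 Purified Fabs titrated on human or mouse TFPI-coated plates; bound Fab detected with HRP anti-human Fab and AmplexRed/H2O2 to derive EC50. Affinity and kinetics by Biacore: TFPI amine-coupled on CM5 (~300 RU), Fabs in mobile phase at 0.1, 0.4, 1.6, 6.4 and 25 nM.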

[5] = molecular target: T1, human tissue factor pathway inhibitor …; experiment: cell-based or functional assay
[6] = molecular target: T3, mouse tissue factor pathway inhibitor …; experiment: ELISA, IgG on coated mouse TFPI
[7] = molecular target: T4, human TFPI K1 (human, UniProt P10646 29-107, limits assumed); experiment: Western blots and ELISA
T4 construct: domain: K1; also called Kunitz domain 1
T4 sequence (looked up): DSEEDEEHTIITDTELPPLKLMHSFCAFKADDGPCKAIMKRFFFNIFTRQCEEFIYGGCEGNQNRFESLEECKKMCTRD
Procedure: Western blots and ELISA were used to determine which domain(s) of TFPI of the inhibitory antibodies bind. Recombinant full length human TFPI or TFPI domains were used for these studies. ELISA was similar to Example 3. In the Western Blot, human TFPI or domains were run on 4-12% Bis-Tris SDS PAGE running buffer MES (Invitrogen, Carlsbad, Calif.) and then transferred to cellulose membrane. After incubation with inhibitory antibodies for 10 min, the membrane was washed three times using SNAPid system (Millipore, Billerica, Mass.). A HRP conjugated donkey anti-mouse antibody (Pierce, Rockford, Ill.) at 1 to 10,000 dilution was incubated with the membrane for 10 min. After a similar wash step, the membrane was developed using SuperSignal substrate (Pierce, Rockford, Ill.). Whereas the control anti-Kunitz domain 1 antibody binds to full length TFPI, truncated TFPI and domains, inhibitory anti-TFPI antibodies only bind to TFPI containing Kunitz domain 2.

[8] = molecular target: T1, human tissue factor pathway inhibitor …; experiment: ELISA, IgG against Fab
[9] = molecular target: T3, mouse tissue factor pathway inhibitor …; experiment: ELISA, IgG against Fab
[10] = molecular target: T1, human tissue factor pathway inhibitor …; experiment: ELISA, IgG on coated human TFPI

T2 sequence (P02769 25-607 limits assumed): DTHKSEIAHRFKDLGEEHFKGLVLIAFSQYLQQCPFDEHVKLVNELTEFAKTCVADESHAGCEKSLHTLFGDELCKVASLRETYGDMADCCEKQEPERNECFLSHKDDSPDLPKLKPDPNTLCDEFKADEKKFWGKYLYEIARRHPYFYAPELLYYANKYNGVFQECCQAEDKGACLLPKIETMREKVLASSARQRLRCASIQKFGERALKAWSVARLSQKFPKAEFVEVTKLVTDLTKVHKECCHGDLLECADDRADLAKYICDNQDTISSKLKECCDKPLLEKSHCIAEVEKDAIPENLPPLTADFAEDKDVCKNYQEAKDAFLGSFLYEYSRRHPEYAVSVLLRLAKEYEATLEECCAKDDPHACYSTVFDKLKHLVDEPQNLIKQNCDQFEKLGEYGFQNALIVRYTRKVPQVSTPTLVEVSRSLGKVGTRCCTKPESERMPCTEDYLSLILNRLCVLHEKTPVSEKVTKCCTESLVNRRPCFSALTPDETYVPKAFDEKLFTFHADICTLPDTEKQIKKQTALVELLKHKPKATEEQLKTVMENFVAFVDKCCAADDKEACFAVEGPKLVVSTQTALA

| Binder | Kd [1] | binding result [2] | binding result [3] | EC50 [4] | % inhibition of hTFPI activity [5] | dPT in hemoA plasma [5] | EC50 [6] | binding result [7] | fold change of EC50 against 2G6-Fab [8] | fold change of EC50 against 2G6-Fab [9] | EC50 [10] |
| --- | --- | --- | --- | --- | --- | --- | --- | --- | --- | --- | --- |
| B1 | 35.9 nM | no binding | no binding | 36.9 nM | 29% | 71.9 s |  |  |  |  |  |
| B2 | 25.2 nM | no binding | no binding | 847 nM | 39% | 73.9 s |  |  |  |  |  |
| B3 |  |  |  |  |  |  | 0.51 nM | no binding | 2 fold | 10 fold | 0.22 nM |
| B4 |  |  |  |  |  |  |  | no binding |  |  |  |
| B5 |  |  |  |  |  |  |  | no binding |  |  |  |
| B6 | 32.2 nM | no binding | no binding | 72.5 nM | 28% | 76.5 s |  |  |  |  |  |
| B7 | 2.64 nM | no binding | no binding | 0.4 nM | 21% | 70.9 s |  |  |  |  |  |
| B8 |  |  |  |  |  |  |  | no binding |  |  |  |
| B9 | 26.9 nM | no binding | no binding | 23.5 nM | 55% | 72.2 s |  |  |  |  |  |
